Results from patent publication US20010000783A1, “Treatment of interstitial cystitis” (priority 1998, published 2001).

Tests used:
Format in all cases: cell-based
[1] = test system: primary human bladder epithelial cells grown from IC patient biopsy specimens; experiment: Inhibition of HPLC-purified APF activity by rhHB-EGF, 3H-thymidine incorporation, cells from IC patient biopsies; settings: 10 pg/10^7 cells HPLC-purified APF, 48 hours; cells from IC patients; FIG. 10B
Procedure: (§1) Primary normal adult human bladder epithelial (HBE) cells were cultured by the method described above in Part II. On the third day of incubation, cell medium was replaced by serum free MEM containing the less than 3 kDa fraction (i.e, containing the APF) of urine specimens from IC patients or controls (i.e., that part containing the anti-proliferative factor or APF described in related application Ser. No. 08/944,202), or HPLC-purified APF or its mock control along with varying concentrations of recombinant HB-EGF (0-100 ng/ml), EGF (0-100 ng/ml), or IGF-1 (0-300 pg/ml) [all from R & D Systems, Minneapolis, Minn.] diluted in phosphate buffered saline (1:1:1). Urine was prepared by the method described above in Part II and HPLC purified APF was prepared as described above. Following an additional 48 hours of incubation at 37 degrees C. in a 5% CO2 atmosphere, cell proliferation was assessed by ^3H-thymidine incorporation according to the published methods^38.
(§2) Cell proliferation was determined 48 hours later by 3H-thymidine incorporation. Bar values indicate the mean of triplicate determinations. Vertical lines indicate the standard of error of the mean.

[2] = test system: Normal human bladder epithelial cells; experiment: Inhibition of APF activity by recombinant growth factors, low molecular weight urine fractions, 3H-thymidine incorporation
Procedure: as §1
Normal human bladder epithelial cells were exposed simultaneously to recombinant human growth factors (HB-EGF, EGF, or IGF1) and low molecular weight fractions from IC patients or control urine specimens. Cell proliferation was determined 48 hours later by 3H-thymidine incorporation (FIGS. 6A-6C). Bar values indicate the mean of 5-8 determinations. Vertical lines indicate the standard error of the mean.

[3] = test system: primary human bladder epithelial cells grown from normal bladder tissue; experiment: Inhibition of HPLC-purified APF activity by rhHB-EGF, 3H-thymidine incorporation, cells from normal bladder tissue; settings: 10 pg/10^7 cells HPLC-purified APF, 48 hours; cells from controls; FIG. 10A
Procedure: as §1, §2

B1: heparin-binding epidermal growth factor-like growth factor (protein, UniProt Q99075 63-148, looked up)
Heparin-binding EGF-like …: DLQEADLDLLRVTLSSKPQALATPNKEEHGKRKKKGKGLGKKRDPCLRKYKDFCIHGECKYVKELRAPSCICHPGYHGERCHGLSL
With B1 the “inhibition of APF's antiproliferative effects” value [1] was “can inhibit APF's antiproliferative effects”, the “proliferation of cells exposed to urine from IC patients” value ([2]; high concentrations of rhHB-EGF, compared with cells exposed to control urines, FIG. 6A) was “stimulated, more than that of cells exposed to control urines” and the “inhibition of APF antiproliferative activity” value ([2]; simultaneous exposure to recombinant growth factor and <3 kDa urine fraction, 48 hours, HB-EGF 0-100 ng/ml (effect evident at 10 ng/ml), EGF 0-100 ng/ml, IGF-1 0-300 pg/ml, FIGS. 6A-6C) was “resulted in inhibition of APF antiproliferative activity”. The “inhibition of APF's antiproliferative effects” value [3] was “can inhibit APF's antiproliferative effects”.
